From US20090304719A1 (University of California, published 2009) come the findings set out here.

Bridges are numbered along the chain shown (N, C = ends). Where no end group is shown, it is not given here. CPX = display scaffold, circularly permuted E. coli OmpX, fused C-terminal

One assay addresses T1, anti-VEGF scFv TBM.
T1 construct: The design included a His6 tag at the N-terminus and a TEV site; also called anti-VEGF single chain Fv
Nature of the assay: FACS, peptide displayed on bacteria, anti-VEGF scFv; clones selected with labeled ranibizumab. As to the method: Ranibizumab was used to screen a pooled random peptide library, consisting of peptides that are X₁₅ (8.3×10⁹), X₄CX₇CX₄ (3.6×10⁹), or X₁₂CX₃ (1.1×10⁹), where X is any amino acid and the number represents the total diversity of the library. The total diversity of the pooled library was 1.3×10¹⁰. The screening consisted of one round of MACS and […] of FACS sorting. […] In the first FACS screen, positive cells isolated in the MACS screen were probed with 500 nM biotinylated-ranibizumab, and visualized with neutrAvidin-PE (Molecular Probes, Eugene, Oreg.). The second and third rounds of FACS selections were done with 500 nM and then 100 nM Alexa-labeled ranibizumab in the presence of 20 uM IgG. Individual clones were sequenced and subsequently verified for their ability to bind anti-VEGF scfv by FACS analysis.
For orientation: In flow cytometry, cells or beads pass a laser one at a time.

Assay [1] addresses T2, UC4F10-11 hamster anti-mouse CTLA4 antibody.
T2 construct: Whole antibody, biotinylated or Dylight-labeled in the sorts; also called mouse anti-CTLA4 antibody (clone UC4 F10-1); anti-CTLA4
The assay is described as follows: bacterial display screening against anti-CTLA4 antibody; assay for this peptide not detailed.

In assay [2] the target is T3, VEGF (UniProt P15692-4 27-191, limits assumed, biotinylated in the FACS assays (sites not given)).
T3 construct: Species and isoform are never stated; also called labeled VEGF; biotinylated VEGF
The assay is described as follows: FACS, clone displayed on E. coli (CPX), labeled VEGF; with MMP-2 against without (FIG. 23). As for the experimental part: (§1) In experiments involving addition of enzyme, 30 nM MMP-2 was included in the Tris-Cl buffer (no enzyme added to the control reaction), and the reaction mixture was incubated at room temperature for 2 hours. Cells were then removed and diluted 1:100 in PBS (pH 7.4) to stop the reaction, pelleted by centrifugation, and resuspended in 30 microliters of refrigerated PBS containing 25 nM biotinylated VEGF. After incubation in the refrigerator on a rotary shaker for 45 minutes, cells were pelleted at 4° C. and resuspended in refrigerated PBS containing 50 nM Streptavidin-Phycoerythrin fluorescent conjugate. After incubation in the refrigerator on a rotary shaker for 45 minutes, cells were pelleted at 4° C. and resuspended in PBS and red fluorescence was measured for analysis or sorting on a FACSAria cell sorter. The fluorescence of cells treated with enzyme was compared to control samples to determine the increase in VEGF binding.
(§2) In an additional experiment, the fluorescence values for a cysteine constrained loop structure were determined in the presence and absence of MMP-2 and compared with the fluorescence values for library clones 4.2A.11 (a.k.a. 4-2A-11) and 2.3B.5 (a.k.a. 2-3B-5) in the presence and absence of MMP-2.

Assay [3] deals with T3, VEGF. Nature of the assay: FACS, construct displayed on E. coli (CPX), labeled VEGF; MMP-2 treated against untreated (FIG. 25). As for the experimental part: as §1
Assay [4] addresses T3, VEGF. The assay is described as follows: SPR (Biacore), VEGF amine-coupled to a CM5 chip, soluble MBP fusion injected with and without 30 nM MMP-2 (FIG. 27). (Surface plasmon resonance follows binding to a sensor surface in real time, without labels.)
Protocol: VEGF was immobilized to the Biacore™ CM5 sensor chip surface using the standard amine coupling kit. An NHS/EDC mixture was injected first to activate the surface using the surface preparation wizard in the Biacore™ software. Then, 25 ug/mL concentration of VEGF was injected until the desired immobilization amount was reached (typically ˜5000 response units). The surface is then blocked with ethanolamine. A control reaction was performed on another surface with NHS/EDC then Ethanolamine.
After the VEGF is covalently immobilized, the maltose-binding protein (MBP) fusions of VEGF binding or VEGF binding ABP clones were injected over both the VEGF surface and the control surface. Injections were typically for 1 minute, with a few minutes of dissociation time after each injection. The clones were injected both with and without 30 nM MMP-2 enzyme. For analysis, the signal on the VEGF surface minus the signal on the control surface is the binding response (in RU).
The target of assay [5] is T3, VEGF. Nature of the assay: FACS, construct displayed on E. coli (CPX), labeled VEGF; with MMP-2 against without (FIG. 23). As for the experimental part: as §1, §2
For assay [6], the target named is T3, VEGF. The assay is described as follows: Kd,app of VEGF binding to the construct displayed on E. coli, with MMP-2 against without (FIG. 13).
Assay [7] addresses T3, VEGF. The assay is described as follows: FACS, ABP displayed on E. coli (CPX), labeled VEGF; MMP-2 treated against untreated. As for the experimental part:
as §1

For assay [8], the target named is T3, VEGF. The assay is described as follows: FACS, construct displayed on E. coli (CPX), labeled VEGF; treated against untreated.
Assay [9] addresses T3, VEGF. Nature of the assay: Kd,app of VEGF binding to the clone displayed on E. coli, with MMP-2 against without (FIG. 14).

T3 sequence (P15692 other isoform, or with tags, fused parts or gaps limits assumed): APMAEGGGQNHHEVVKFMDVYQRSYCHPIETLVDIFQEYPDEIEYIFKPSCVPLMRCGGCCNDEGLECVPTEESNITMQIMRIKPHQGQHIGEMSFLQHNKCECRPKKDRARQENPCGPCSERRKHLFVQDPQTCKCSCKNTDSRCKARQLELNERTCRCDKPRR
T1 sequence (scFv, as listed by the source): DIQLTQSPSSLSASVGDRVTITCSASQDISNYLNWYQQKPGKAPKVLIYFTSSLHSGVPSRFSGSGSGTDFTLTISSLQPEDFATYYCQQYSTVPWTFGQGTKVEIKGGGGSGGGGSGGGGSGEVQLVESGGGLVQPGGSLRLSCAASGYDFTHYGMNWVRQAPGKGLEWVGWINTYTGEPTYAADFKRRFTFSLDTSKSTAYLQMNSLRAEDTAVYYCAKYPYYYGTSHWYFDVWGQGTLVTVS
T2 sequence (VH, as listed by the source limits assumed, chain 1 of 2): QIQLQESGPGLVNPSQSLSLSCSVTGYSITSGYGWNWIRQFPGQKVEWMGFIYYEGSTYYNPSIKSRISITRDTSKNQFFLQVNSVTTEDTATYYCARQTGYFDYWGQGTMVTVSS
T2 sequence (VL, as listed by the source limits assumed, chain 2 of 2): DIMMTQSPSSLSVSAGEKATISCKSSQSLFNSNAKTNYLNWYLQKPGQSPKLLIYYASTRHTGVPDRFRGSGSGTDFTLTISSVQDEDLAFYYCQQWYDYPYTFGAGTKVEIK

With GAMACYNIFEYWCSAMK (also called 315 MM) [JS315], in the assay with anti-VEGF scFv TBM, the binding result is listed as “binds”.

With GHGMCYTILEDHCDRVR (also called 292 MM) [JS292], the binding result with anti-VEGF scFv TBM was “binds”. The same measure, in the same setting: the value for RPPCCRDYSILECCKSD [JS314] was “binds”. Take PCSEWQSMVQPRCYY (also called MMneg) [Negative control MM (does not bind anti-CTLA4)]: in [1], the binding result is “no binding”. Consider ATAVWNSMVKQSCYMQG (also called 283 MM) [JS283], for which the binding result in the assay with anti-VEGF scFv TBM is recorded as “binds”.

B1: ABP library clone 4-2A-11 (designed binder)
chain: GQSGQGEDEEGPLGLAGGGSGNFGYGKWEWDYGKWLEKVGGG
notes: not shown: CPX display scaffold (circularly permuted E. coli OmpX), fused C-terminal of the ABP
As to B1, the “fold increase in fluorescence in the presence of MMP-2” value in the assay with VEGF [2] is ~5.7 fold. As for NVECCQNYNLWNCCGGR (also called 308 MM) [JS308], the binding result in the assay with anti-VEGF scFv TBM is on record as “binds”.

B2: GS control (designed binder)
chain: GQSGQGGSGGSGGSGGSGGSPLGLAGGGSGNFGYGKWEWDYGKWLEKVGGG
modifications: also: fused C-terminal to CPX display scaffold, letters not given here
notes: Control lacking the cysteine-cysteine disulfide bond; also called GS control polypeptide; not shown: CPX display scaffold (circularly permuted E. coli OmpX), fused C-terminal of the construct
As for B2, the “fold increase in fluorescence after enzyme cleavage” value with VEGF [3] is < 2 fold.

B3: maltose-binding protein (MBP) fusion of ABP clone 2.3B.5 (designed binder, not shown: large carriers; small tags and cut ends)
chain: CEYAFGPLGLAGGGSGNFGYGKWEWDYGKWLEKVGGC
modifications: also: fusion with maltose-binding protein (order not certain), disulfide Cys1–C-terminal Cys possible
notes: Soluble protein; the order MBP then ABP is my reading and is not certain; also called 2.3B.5 (2-3B-5) fusion; MBP-ABP fusion
With B3, the “fold increase in binding response in the presence of MMP-2” value with VEGF [4] was ~4 fold. On to VHAWEQLVIQELYHC (also called 311 MM) [JS311], for which the binding result with anti-VEGF scFv TBM is “binds”.

B4: cysteine constrained loop ABP (designed binder)
chain: GQSGQGCGSGPLGLAGGGSGNFGYGKWEWDYGKWLEKVGGC-{CPX}
modifications: disulfide 7-41 (inferred); also: fused C-terminal to CPX display scaffold, letters not given here
notes: Tested untreated, after MMP-2 treatment and after DTT reduction; also called cysteine constrained parent; cysteine constrained loop structure; not shown: CPX display scaffold (circularly permuted E. coli OmpX), fused C-terminal of the ABP
Regarding B4, in the assay with VEGF [5], the “fold increase in fluorescence in the presence of MMP-2” value is ~3 fold. Besides, the “fold improvement in Kd,app in the presence of MMP-2” value with VEGF [6] is ~3.4 fold. Also, in the assay with VEGF [7], the “fold increase in fluorescence after MMP-2 treatment” value was ~2.6 fold. The same molecule displayed a fold switching activity with VEGF [8] of 2 fold. For PCSEWQSMVQPRCYYGG [JS306], the binding result in the assay with anti-VEGF scFv TBM is given as “binds”.

B5: ABP library clone 2-2A-5 (designed binder)
chain: GQSGQPEWGCGPLGLAGGGSGNFGYGKWEWDYGKWLEKVGGC-{CPX}
modifications: disulfide 10-42 (inferred); also: fused C-terminal to CPX display scaffold, letters not given here
notes: Tested untreated, after MMP-2 and after DTT; not shown: CPX display scaffold (circularly permuted E. coli OmpX), fused C-terminal of the ABP
Turning to B5, in the assay with VEGF [9], the “fold improvement in Kd,app in the presence of MMP-2” value is ~4.8 fold. In the case of GVGLCYTILEQWCEMGR (also called 313 MM) [JS313], the binding result with anti-VEGF scFv TBM was “binds”.
